Data reported in the Human Domainome abundance scans (Beltran et al. 2025).
± gives the uncertainty stated by the source.

B1: Pre-mRNA-processing factor 40 homolog B, residues 274 to 332; numbered along this chain, Q6NWY9 (parent)
chain: SNREKAKQAFKELLRDKAVPSNASWEQAMKMVVTDPRYSALPKLSEKKQAFNAYKAQRE

Variants of: B1
Experiment: abundance fitness (aPCA) (normalised: wild type 0, dead -1); higher = more abundant; growth selection in yeast, the domain comes from the species named
Settings: Homo sapiens

Variant	abundance fitness
K48L	0.122 ± 0.08
K48E	-0.344 ± 0.11
K48I	-0.047 ± 0.18
K48Y	-0.259 ± 0.17
K48T	-0.45 ± 0.1
K48P	-0.306 ± 0.13
K48D	-0.579 ± 0.14
K48M	-0.01 ± 0.12
K48H	-0.335 ± 0.2
K48R	-0.196 ± 0.078
K48W	-0.532 ± 0.13
K48F	-0.435 ± 0.21
K48C	-0.837 ± 0.23
K48G	-0.664 ± 0.077
K48N	-0.545 ± 0.16
K48A	-0.49 ± 0.076
K48Q	-0.161 ± 0.12
K47E	-0.477 ± 0.11
K47H	-0.427 ± 0.16
K47W	-0.765 ± 0.1
K47S	-0.46 ± 0.085
K47R	-0.142 ± 0.062
K47A	-0.458 ± 0.079
K47M	-0.497 ± 0.11

Variant	abundance fitness
K47L	-0.605 ± 0.075
K47Q	-0.236 ± 0.12
K47N	-0.718 ± 0.24
K47C	-0.606 ± 0.093
K47P	-0.365 ± 0.093
K47T	-0.447 ± 0.11
K47V	-0.644 ± 0.07
K47D	-0.41 ± 0.11
K47F	-0.304 ± 0.12
K47I	-0.972 ± 0.16
K47Y	-0.567 ± 0.14
Q49E	0.294 ± 0.1
Q49F	-0.636 ± 0.16
Q49I	-0.307 ± 0.18
Q49P	-0.574 ± 0.11
Q49K	-0.066 ± 0.2
Q49C	-0.239 ± 0.16
Q49A	0.112 ± 0.11
Q49N	-0.481 ± 0.21
Q49H	-0.407 ± 0.2
Q49G	-0.343 ± 0.072
Q49L	-0.386 ± 0.086
Q49R	-0.116 ± 0.074
Q49D	0.021 ± 0.18

Variant	abundance fitness
M31C	-0.422 ± 0.12
M31N	-0.364 ± 0.17
M31Y	-0.32 ± 0.14
M31H	-0.208 ± 0.17
M31D	-0.272 ± 0.11
M31T	-0.336 ± 0.11
M31K	-0.293 ± 0.094
M31G	-0.231 ± 0.059
M31E	-0.109 ± 0.088
M31S	-0.115 ± 0.077
M31F	-0.634 ± 0.19
M31V	-0.326 ± 0.084
M31W	-0.865 ± 0.13
M31R	-0.266 ± 0.06
M31P	-0.247 ± 0.15
M31L	-0.189 ± 0.099
M31Q	-0.246 ± 0.15
P42G	-0.156 ± 0.053
P42E	0.018 ± 0.079
P42S	-0.131 ± 0.078
P42W	-0.602 ± 0.084
P42L	-0.287 ± 0.086
P42R	-0.326 ± 0.059
P42C	-0.518 ± 0.1

Variant	abundance fitness
P42D	-0.023 ± 0.1
P42V	-0.418 ± 0.071
P42M	-0.189 ± 0.11
P42N	-0.628 ± 0.17
P42I	-0.283 ± 0.16
P42F	-0.749 ± 0.21
P42Q	-0.316 ± 0.14
P42H	-0.477 ± 0.22
P42T	-0.093 ± 0.11
P42K	-0.13 ± 0.18
P42A	-0.147 ± 0.07
V33N	0.152 ± 0.16
V33Q	0.053 ± 0.17
V33A	0.141 ± 0.074
V33P	-0.384 ± 0.12
V33S	0.198 ± 0.073
V33W	0.012 ± 0.088
V33C	0.137 ± 0.086
V33K	0.169 ± 0.12
V33G	0.055 ± 0.054
V33H	0.164 ± 0.14
V33T	-0.042 ± 0.12
V33L	-0.135 ± 0.067
V33Y	-0.269 ± 0.2

Variant	abundance fitness
V33M	0.171 ± 0.12
V33E	0.169 ± 0.093
V33F	-0.228 ± 0.11
V33D	0.006 ± 0.13
K30T	-0.143 ± 0.084
K30H	-0.384 ± 0.19
K30V	-0.429 ± 0.074
K30M	-0.247 ± 0.11
K30Q	-0.072 ± 0.2
K30G	-0.214 ± 0.067
K30R	-0.03 ± 0.062
K30L	-0.42 ± 0.088
K30Y	-1.08 ± 0.23
K30W	-0.999 ± 0.15
K30P	-0.146 ± 0.11
K30F	-0.76 ± 0.17
K30S	-0.156 ± 0.087
K30I	-0.701 ± 0.19
E46T	-0.631 ± 0.11
E46D	0.027 ± 0.14
E46A	-0.466 ± 0.07
E46G	-0.694 ± 0.055
E46S	-0.716 ± 0.083
E46M	-0.413 ± 0.095

Variant	abundance fitness
E46Y	-0.755 ± 0.19
E46H	-0.724 ± 0.18
E46C	-0.519 ± 0.12
E46Q	-0.147 ± 0.15
E46F	-1.03 ± 0.15
E46R	-1.04 ± 0.072
E46V	-0.672 ± 0.073
E46P	-0.817 ± 0.11
E46K	-0.939 ± 0.17
E46L	-0.73 ± 0.085
E46I	-0.872 ± 0.17
E46N	-0.566 ± 0.15
L41K	-0.372 ± 0.095
L41M	-0.176 ± 0.12
L41Q	-0.295 ± 0.12
L41Y	-0.34 ± 0.2
L41S	-0.519 ± 0.065
L41D	-0.439 ± 0.12
L41N	-0.443 ± 0.17
L41R	-0.552 ± 0.061
L41I	-0.268 ± 0.16
L41V	-0.16 ± 0.073
L41T	-0.214 ± 0.094
L41P	-0.295 ± 0.077

Variant	abundance fitness
L41A	-0.451 ± 0.065
L41H	-0.785 ± 0.23
L41E	-0.189 ± 0.084
L41C	-0.438 ± 0.14
L41W	-0.486 ± 0.081
L44N	-0.448 ± 0.19
L44K	-0.289 ± 0.11
L44W	-0.561 ± 0.089
L44E	0.137 ± 0.089
L44M	-0.087 ± 0.1
L44D	-0.288 ± 0.13
L44R	-0.36 ± 0.062
L44S	-0.175 ± 0.076
L44H	-0.736 ± 0.17
L44Q	-0.219 ± 0.086
L44F	-0.574 ± 0.31
L44I	-0.101 ± 0.13
L44Y	-0.809 ± 0.22
L44P	-0.269 ± 0.084
L44A	-0.12 ± 0.072
L44T	-0.337 ± 0.12
L44V	-0.107 ± 0.077
A40E	-0.42 ± 0.19
A40R	-0.304 ± 0.13

Variant	abundance fitness
A40Y	-0.368 ± 0.27
A40K	-0.27 ± 0.22
A40L	0.008 ± 0.12
A40W	-0.588 ± 0.18
A40T	-0.312 ± 0.27
A40M	0.177 ± 0.33
A40S	0.005 ± 0.19
A40P	-0.675 ± 0.23
A40D	-0.739 ± 0.34
A40G	-0.206 ± 0.14
A40C	-0.129 ± 0.2
A40V	-0.075 ± 0.15
A40Q	-0.417 ± 0.34
P36Q	-0.289 ± 0.13
P36A	-0.19 ± 0.076
P36G	-0.391 ± 0.059
P36L	-0.63 ± 0.07
P36H	-0.445 ± 0.21
P36F	-0.307 ± 0.13
P36T	-0.293 ± 0.1
P36V	-0.353 ± 0.074
P36C	-0.381 ± 0.11
P36S	-0.366 ± 0.075
P36D	-0.049 ± 0.1

Variant	abundance fitness
P36E	-0.103 ± 0.086
P36Y	-0.806 ± 0.13
P36M	-0.607 ± 0.1
P36N	-0.418 ± 0.17
P36R	-0.24 ± 0.064
P36W	-0.669 ± 0.092
S39H	0.098 ± 0.11
S39M	-0.053 ± 0.19
S39K	-0.228 ± 0.14
S39Y	-0.247 ± 0.12
S39L	-0.342 ± 0.084
S39T	-0.099 ± 0.095
S39W	-0.278 ± 0.1
S39R	0.032 ± 0.061
S39Q	-0.191 ± 0.16
S39P	-0.527 ± 0.14
S39G	-0.071 ± 0.068
S39N	0.333 ± 0.17
S39C	-0.141 ± 0.094
S39A	-0.02 ± 0.068
S39E	0.102 ± 0.11
S39D	-0.068 ± 0.11
S45D	-0.097 ± 0.098
S45F	-0.233 ± 0.14

Variant	abundance fitness
S45A	-0.136 ± 0.078
S45R	-0.303 ± 0.072
S45V	-0.457 ± 0.078
S45W	-0.427 ± 0.095
S45G	-0.265 ± 0.062
S45K	-0.117 ± 0.1
S45L	-0.541 ± 0.092
S45I	-0.458 ± 0.15
S45T	-0.211 ± 0.086
S45E	-0.027 ± 0.1
S45H	-0.016 ± 0.22
S45Q	-0.15 ± 0.11
S45C	-0.484 ± 0.18
S45P	-0.369 ± 0.1
R37C	-0.668 ± 0.12
R37H	-0.776 ± 0.19
R37T	-0.658 ± 0.12
R37Q	-0.49 ± 0.11
R37F	-0.905 ± 0.21
R37Y	-1.25 ± 0.33
R37I	-0.228 ± 0.14
R37W	-0.836 ± 0.085
R37G	-0.577 ± 0.051
R37D	-0.74 ± 0.16

Variant	abundance fitness
R37E	-0.479 ± 0.082
R37L	-0.6 ± 0.081
R37A	-0.223 ± 0.069
R37M	-0.705 ± 0.094
V32G	-0.381 ± 0.055
V32S	-0.343 ± 0.075
V32L	-0.182 ± 0.1
V32I	0.178 ± 0.086
V32E	-0.166 ± 0.09
V32N	-0.294 ± 0.14
V32M	-0.175 ± 0.1
V32F	-0.619 ± 0.13
V32P	-0.439 ± 0.11
V32C	-0.113 ± 0.078
V32R	-0.599 ± 0.064
V32D	-0.347 ± 0.091
V32K	-0.171 ± 0.11
V32Y	-0.583 ± 0.12
V32W	-0.732 ± 0.091
V32T	-0.094 ± 0.083
V32A	-0.489 ± 0.079
V32Q	-0.428 ± 0.14
V32H	-0.091 ± 0.13
D35Q	-0.823 ± 0.16

Variant	abundance fitness
D35Y	-1.38 ± 0.31
D35N	-0.415 ± 0.15
D35L	-0.853 ± 0.1
D35G	-0.742 ± 0.063
D35R	-1.12 ± 0.093
D35I	-0.94 ± 0.2
D35K	-1.11 ± 0.18
D35W	-1.21 ± 0.12
D35S	-0.716 ± 0.097
D35A	-0.701 ± 0.083
D35T	-0.714 ± 0.13
D35E	-0.372 ± 0.084
D35F	-0.951 ± 0.26
D35M	-0.699 ± 0.12
D35V	-0.85 ± 0.079
D35P	-0.905 ± 0.14
K43Q	-0.091 ± 0.081
K43E	0.035 ± 0.075
K43L	-0.196 ± 0.067
K43T	0.206 ± 0.076
K43D	0.11 ± 0.17
K43Y	-0.691 ± 0.25
K43V	-0.482 ± 0.063
K43S	0.122 ± 0.076

Variant	abundance fitness
K43P	-0.359 ± 0.078
K43F	-0.593 ± 0.17
K43A	-0.014 ± 0.057
K43M	-0.115 ± 0.081
K43C	0.037 ± 0.12
K43I	-0.655 ± 0.2
K43R	-0.064 ± 0.049
K43H	-0.335 ± 0.15
K43N	-0.105 ± 0.14
K43G	0.001 ± 0.049
K43W	-0.362 ± 0.068
T34A	0.028 ± 0.061
T34R	-0.257 ± 0.06
T34H	0.043 ± 0.12
T34Q	-0.015 ± 0.1
T34M	-0.071 ± 0.089
T34N	0.232 ± 0.12
T34E	-0.039 ± 0.09
T34Y	-0.23 ± 0.11
T34S	0.003 ± 0.068
T34V	-0.419 ± 0.073
T34P	-0.554 ± 0.11
T34L	-0.358 ± 0.066
T34W	-0.544 ± 0.083

Variant	abundance fitness
T34I	-0.611 ± 0.11
T34F	-0.382 ± 0.15
T34G	0.108 ± 0.059
Y38G	-0.436 ± 0.059
Y38C	-0.368 ± 0.11
Y38R	-0.476 ± 0.054
Y38I	-0.548 ± 0.18
Y38P	-0.423 ± 0.081
Y38L	-0.546 ± 0.073
Y38K	-0.217 ± 0.1
Y38H	-0.392 ± 0.13
Y38D	-0.346 ± 0.11
Y38V	-0.38 ± 0.062
Y38W	-0.085 ± 0.07
Y38E	-0.399 ± 0.08
Y38A	-0.317 ± 0.067
Y38M	-0.613 ± 0.096
Y38S	-0.293 ± 0.059
Y38N	-0.466 ± 0.13
Y38F	-0.02 ± 0.12
Y38Q	-0.284 ± 0.1
Y38T	-0.136 ± 0.077
